This is an account of results in paper PMC11739564, “Structure and function of a β-1,2-galactosidase from Bacteroides xylanisolvens, an intestinal bacterium” (Communications Biology, 2025).

Data set [1] has as its target Bxy_22780 E350G mutant (nucleophile mutant) (Bacteroides xylanisolvens). Nature of the data set: crystal structure; E350G mutant, ligand-free; 10–11 mg/ml in 50 mM MOPS (pH 7.5), 300 mM NaCl; reservoir 0.2 M sodium citrate tribasic dihydrate, 20% PEG 3350, 100 mM bis–Tris propane (pH 7.5); 20 °C; oligomeric state from PISA server analysis of the crystal structure.
Data set [2] has as its target Bxy_22780 (GH35 β-1,2-galactosidase from Bacteroides xylanisolvens), wild type (Bacteroides xylanisolvens). Nature of the data set: crystal structure; WT enzyme co-crystallised with 20 mM galactose or MeβGal; reservoir 0.35 M potassium thiocyanate, 12% PEG 3350; 20 °C; oligomeric state from PISA server analysis of the crystal structures.
Substrate in data set [3]: C[C@H]1O[C@@H](Oc2ccc([N+](=O)[O-])cc2)[C@H](O)[C@@H](O)[C@H]1O
Description: hydrolysis kinetics (read-out for this constant not clearly told). The data set is classed as biochemical, Bacteroides xylanisolvens. The following applies: kinetic assays at pH 7.5, 30 °C. From the text: hydrolysis kinetics (read-out for this constant not clearly told) on Bxy_22780

Substrate in data set [4]: O=[N+]([O-])c1ccc(O[C@@H]2O[C@H](CO)[C@H](O)[C@H](O)[C@H]2O)cc1
Description: purified protein. The following applies: hydrolysis, kinetic assays at pH 7.5, 30 °C.

As to “Bxy_22780 E350G mutant (nucleophile mutant) (enzyme)”, the stoichiometry N in data set [1] was determined as 4.

Turning to “Bxy_22780 (GH35 β-1,2-galactosidase from Bacteroides xylanisolvens), wild type (enzyme)”, the stoichiometry N in data set [2] turned out to be 4.

B1: Bxy_22780 (Bacteroides xylanisolvens XB1A) (protein)
chain: RPPMYTSTNTEVPSRLVKNEHGSWQLIVNGKPFIMLAGELHNSSASTTEYLNSLWTSLKTLNLNTVLAPIAWEQFEPQEGIFDYTLINNMIDGARKNGFKLSILWFGSWKNGESSYAPTWVKEDTKRFFRVKSVEGKEIETISPFCENAMKADAKAFKTLVEHIKKVDQATGTVIALQPENEVGIFQGMDYSKASLAAYEQEVPQALIQYMKKNRKNLRKELLSVWEENGARTSGAWKTVFGDNAWSKSFYTTWQYATYIDFISAGAKEIYPLPTFCNCWLVQKPDDMPGVYPNGGPVSRVMDIWKAAAPHIDVLAPDIYLSDFKNIVADYHRADNPLLIPEAVMKPANAFWAFGEHSALCYSPFGIEDGADNFVFAQSYKVLNELIPLISEHQGSDRMIGVMKMPGESERTVTMGDYQLCIKYDAEDAYGLIIQTGKNEFVVAGINFKVYFTSTDKKKTGYIKQVWEGGYDTDGEWKATRLLNGDETYHNAVLIAKGRRTFTSEKSNNYNADHSDEIFVYSPTSYQAVWSPGIYRVTTYLR
notes: N-terminal signal peptide (22 residues, counted with the 14 upstream residues) removed; C-terminal His6-tag (pET30a), E. coli BL21(DE3); homotetramer, D494 of a neighbouring subunit contacts subsite -1
In the case of B1, in data set [3], the Km is listed as 7.95 ± 0.46 mM, the maximal velocity (Vmax) stood at 14 µmol/min/mg and the Vmax/Km amounted to 1760 µL/min/mg. Further, in data set [4], the Michaelis-Menten constant (Km) came out at 3.49 ± 0.53 mM, the Vmax was determined as 21.2 µmol/min/mg and the Vmax/Km turned out to be 6080 µL/min/mg.
